Data taken from patent EP1379283B1, “IDENTIFICATION OF TARGET-SPECIFIC FOLDING SITES IN PEPTIDES AND PROTEINS” (Palatin Technologies, Inc., priority 2000, dated 2002).
Square brackets hold non-standard residues; d marks the D form. Ends that are not written are not given here. dChg = N[C@@H](C(=O)O)C1CCCCC1; Chg = N[C@H](C(=O)O)C1CCCCC1; Orn = NCCC[C@H](N)C(=O)O; Dap = NC[C@H](N)C(=O)O

Legend:
[1] = biological target: T1, uPA receptor (Homo sapiens, UniProt Q03405); assay: uPA receptor-binding assay using U937 cells and ATF as competitive ligand; details: 1 µM metallopeptide; U937 cells; ATF as competitive receptor binding ligand
T1 construct: endogenous in cells; host or cells: U937 cells
T1 sequence (Q03405 23-335): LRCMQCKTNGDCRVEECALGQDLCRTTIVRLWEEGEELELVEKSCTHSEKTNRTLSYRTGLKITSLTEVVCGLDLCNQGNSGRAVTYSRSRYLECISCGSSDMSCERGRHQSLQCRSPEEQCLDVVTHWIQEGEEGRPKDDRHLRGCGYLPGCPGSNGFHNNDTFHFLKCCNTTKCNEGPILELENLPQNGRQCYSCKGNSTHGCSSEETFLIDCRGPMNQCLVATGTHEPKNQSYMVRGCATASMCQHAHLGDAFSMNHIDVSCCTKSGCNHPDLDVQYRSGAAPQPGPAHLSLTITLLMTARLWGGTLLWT

[2] = biological target: T2, oxytocin receptor (Rattus norvegicus, UniProt P70536); assay: oxytocin receptor binding, 3H-oxytocin, cell membranes from rat uterus; details: for % Inhibition at 1 µM Oxytocin Receptor: rat uterus membranes, 3H-oxytocin; for activity at oxytocin receptor: conclusion from Table 30
T2 construct: cell membranes prepared from rat uterus; from tissue; host or cells: rat uterus membranes
T2 sequence (P70536 1-388): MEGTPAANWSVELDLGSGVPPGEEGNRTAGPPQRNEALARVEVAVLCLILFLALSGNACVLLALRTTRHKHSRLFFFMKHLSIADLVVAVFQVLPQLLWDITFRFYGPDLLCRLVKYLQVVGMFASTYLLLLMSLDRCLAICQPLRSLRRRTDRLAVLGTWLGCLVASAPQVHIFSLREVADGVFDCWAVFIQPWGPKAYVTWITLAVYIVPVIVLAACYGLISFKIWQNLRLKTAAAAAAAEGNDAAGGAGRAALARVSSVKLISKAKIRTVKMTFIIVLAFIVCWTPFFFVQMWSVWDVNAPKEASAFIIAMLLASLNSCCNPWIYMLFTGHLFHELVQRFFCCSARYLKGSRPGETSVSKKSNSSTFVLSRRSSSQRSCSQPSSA
Experimental: The screening of metallopeptides for binding to oxytocin receptor was done using cell membranes prepared from rat uterus. […] The membrane preparations (10 - 50 µg/well) were incubated with 412-800 pM ^3H-oxytocin in HEPES Buffer containing 0.2% bovine serum albumin along with a test compound (1 µM final assay concentration) for 2 hours at 4° C. Non-specific binding was determined by addition of 10^-6 M oxytocin instead of the test compound. After incubation, the membranes were filtered and washed three times with ice-cold PBS. The membranes were air-dried and punched directly into scintillation vials. After addition of the scintillation cocktail, the vials were capped and gently shaken for 12 hours to dissolve the radioactivity contained in the filters. The vials were then read for tritium counts in a scintillation counter. Specific binding was determined as the radioactivity in wells containing ^3H-oxytocin alone minus the radioactivity in wells containing 10^-6 M oxytocin. The assay was performed in triplicates. The activity profile for the test compounds were generated by their ability to inhibit specific binding of the radiotracer to its receptor.

[3] = biological target: T3, vasopressin-1 receptor (Rattus norvegicus, UniProt P30560); assay: vasopressin-1 receptor binding, 3H-vasopressin-1 antagonist, cell membranes from rat liver
T3 construct: cell membranes prepared from rat liver; from tissue; host or cells: rat liver membranes
T3 sequence (P30560 whole entry): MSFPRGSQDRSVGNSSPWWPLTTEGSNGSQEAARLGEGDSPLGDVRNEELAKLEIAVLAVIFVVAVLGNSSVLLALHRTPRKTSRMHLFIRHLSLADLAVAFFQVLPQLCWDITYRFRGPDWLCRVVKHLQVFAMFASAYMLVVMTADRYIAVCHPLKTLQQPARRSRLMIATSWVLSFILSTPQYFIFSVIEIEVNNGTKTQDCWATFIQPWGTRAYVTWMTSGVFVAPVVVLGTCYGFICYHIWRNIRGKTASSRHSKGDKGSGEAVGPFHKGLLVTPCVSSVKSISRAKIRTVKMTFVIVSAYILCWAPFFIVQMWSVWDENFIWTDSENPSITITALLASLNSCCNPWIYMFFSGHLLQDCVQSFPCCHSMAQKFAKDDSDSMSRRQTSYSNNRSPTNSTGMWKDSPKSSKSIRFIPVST
Experimental: The screening of compounds for vasopressin-1 receptor was performed using cell membranes prepared from rat liver. The assay was essentially performed as described above for the oxytocin receptor assay. In this assay 2-4 nM ^3H-vasopressin-1 antagonist (obtained from Perkin Elemer- NEN Life Sciences) was used as the radiotracer and Arg^8-vasopressin (1 µM final concentration in the assay) was used to determine non-specific binding. The assay was performed in triplicates. Activity profile for the test compounds were generated by their ability to inhibit specific binding of the radiotracer to its receptor.

[4] = Table 30, oxytocin ligand library
[5] = Table 29, vasopressin ligand library

Row | Substance | % Inhibition at 1 µM Oxytocin Receptor [2, 4] | % Inhibition at 1 µM Vasopressin-1 Receptor [3, 4] | % Inhibition at 1 µM Oxytocin Receptor [2, 5] | % Inhibition at 1 µM Vasopressin-1 Receptor [3, 5] | also measured
1 | Ac-Val-Ser-Asn-Cys-Lys-Tyr-Phe-Ser-Asn-Ile-His-Trp-NH2 (Ac-VSNCKYFSNIHW-NH2; not fully specified (bridges); printed as Ac-Val-Ser-Asn-Cys-Lys-Tyr-Phe-Ser-Asn-Ile-His-Trp-NH2; also: oxorhenium(V) N3S1 metal chelate (X-X-Cys)) [SEQ ID NO:5] | – | – | – | – | % Inhibition at 1 µM [1]: 0.0%
2 | Ac-Val-Ser-Asn-Lys-Cys-Tyr-Phe-Ser-Asn-Ile-His-Trp-NH2 (Ac-VSNKCYFSNIHW-NH2; not fully specified (bridges); printed as Ac-Val-Ser-Asn-Lys-Cys-Tyr-Phe-Ser-Asn-Ile-His-Trp-NH2; also: oxorhenium(V) N3S1 metal chelate (X-X-Cys)) [SEQ ID NO:6] | – | – | – | – | % Inhibition at 1 µM [1]: 13.0%
3 | Ac-Val-Ser-Asn-Lys-Tyr-Cys-Phe-Ser-Asn-Ile-His-Trp-NH2 (Ac-VSNKYCFSNIHW-NH2; not fully specified (bridges); printed as Ac-Val-Ser-Asn-Lys-Tyr-Cys-Phe-Ser-Asn-Ile-His-Trp-NH2; also: oxorhenium(V) N3S1 metal chelate (X-X-Cys)) [SEQ ID NO:7] | – | – | – | – | % Inhibition at 1 µM [1]: 18.0%
4 | Ac-Val-Ser-Asn-Lys-Tyr-Phe-Cys-Ser-Asn-Ile-His-Trp-NH2 (Ac-VSNKYFCSNIHW-NH2; not fully specified (bridges); printed as Ac-Val-Ser-Asn-Lys-Tyr-Phe-Cys-Ser-Asn-Ile-His-Trp-NH2; also: oxorhenium(V) N3S1 metal chelate (X-X-Cys)) [SEQ ID NO:8] | – | – | – | – | % Inhibition at 1 µM [1]: 0.0%
5 | Ac-Val-Ser-Asn-Lys-Tyr-Phe-Ser-Asn-Cys-Ile-His-Trp-NH2 (Ac-VSNKYFSNCIHW-NH2; not fully specified (bridges); printed as Ac-Val-Ser-Asn-Lys-Tyr-Phe-Ser-Asn-Cys-Ile-His-Trp-NH2; also: oxorhenium(V) N3S1 metal chelate (X-X-Cys)) [SEQ ID NO:10] | – | – | – | – | % Inhibition at 1 µM [1]: 32.0%
6 | Ac-Val-Ser-Asn-Lys-Tyr-Phe-Ser-Asn-Ile-Cys-His-Trp-NH2 (Ac-VSNKYFSNICHW-NH2; not fully specified (bridges); printed as Ac-Val-Ser-Asn-Lys-Tyr-Phe-Ser-Asn-Ile-Cys-His-Trp-NH2; also: oxorhenium(V) N3S1 metal chelate (X-X-Cys)) [SEQ ID NO:11] | – | – | – | – | % Inhibition at 1 µM [1]: 0.0%
7 | Ala-Tyr-Cys-Ile-Gln-Asn-Ala-Pro-Leu-Gly-NH2 (AYCIQNAPLG-NH2; not fully specified (bridges); printed as Ala-Tyr-Cys-Ile-Gln-Asn-Ala-Pro-Leu-Gly-NH2; also: oxorhenium(V) N3S1 metal chelate (X-X-Cys)) [SEQ ID NO:158] | 6% | 1% | – | – | –
8 | Ala-Tyr-Ile-Cys-Gln-Asn-Ala-Pro-Leu-Gly-NH2 (AYICQNAPLG-NH2; not fully specified (bridges); printed as Ala-Tyr-Ile-Cys-Gln-Asn-Ala-Pro-Leu-Gly-NH2; also: oxorhenium(V) N3S1 metal chelate (X-X-Cys)) [SEQ ID NO:157] | 0% | 0% | – | – | –
9 | Ala-Tyr-Ile-Gln-Asn-Ala-Ala-Cys-Leu-Gly-NH2 (AYIQNAACLG-NH2; not fully specified (bridges); printed as Ala-Tyr-Ile-Gln-Asn-Ala-Ala-Cys-Leu-Gly-NH2; also: oxorhenium(V) N3S1 metal chelate (X-X-Cys)) [SEQ ID NO:152] | 0% | 1% | – | – | –
10 | Ala-Tyr-Ile-Gln-Asn-Ala-Ala-Leu-Cys-Gly-NH2 (AYIQNAALCG-NH2; not fully specified (bridges); printed as Ala-Tyr-Ile-Gln-Asn-Ala-Ala-Leu-Cys-Gly-NH2; also: oxorhenium(V) N3S1 metal chelate (X-X-Cys)) [SEQ ID NO:151] | 0% | 0% | – | – | –
11 | Ala-Tyr-Ile-Gln-Asn-Ala-Ala-Leu-Gly-Cys-NH2 (AYIQNAALGC-NH2; not fully specified (bridges); printed as Ala-Tyr-Ile-Gln-Asn-Ala-Ala-Leu-Gly-Cys-NH2; also: oxorhenium(V) N3S1 metal chelate (X-X-Cys)) [SEQ ID NO:150] | 0% | 0% | – | – | –
12 | Ala-Tyr-Ile-Gln-Asn-Ala-Cys-Ala-Leu-Gly-NH2 (AYIQNACALG-NH2; not fully specified (bridges); printed as Ala-Tyr-Ile-Gln-Asn-Ala-Cys-Ala-Leu-Gly-NH2; also: oxorhenium(V) N3S1 metal chelate (X-X-Cys)) [SEQ ID NO:154] | 31% | 0% | – | – | activity at oxytocin receptor [2]: active
13 | Ala-Tyr-Ile-Gln-Asn-Ala-Cys-Pro-Leu-Gly-NH2 (AYIQNACPLG-NH2; not fully specified (bridges); printed as Ala-Tyr-Ile-Gln-Asn-Ala-Cys-Pro-Leu-Gly-NH2; also: oxorhenium(V) N3S1 metal chelate (X-X-Cys)) [SEQ ID NO:153] | 2% | 0% | – | – | –
14 | Ala-Tyr-Ile-Gln-Asn-Ala-Pro-Leu-Gly-Cys-NH2 (AYIQNAPLGC-NH2; not fully specified (bridges); printed as Ala-Tyr-Ile-Gln-Asn-Ala-Pro-Leu-Gly-Cys-NH2; also: oxorhenium(V) N3S1 metal chelate (X-X-Cys)) [SEQ ID NO:149] | 6% | 0% | – | – | –
15 | Ala-Tyr-Ile-Gln-Asn-Cys-Ala-Pro-Leu-Gly-NH2 (AYIQNCAPLG-NH2; not fully specified (bridges); printed as Ala-Tyr-Ile-Gln-Asn-Cys-Ala-Pro-Leu-Gly-NH2; also: oxorhenium(V) N3S1 metal chelate (X-X-Cys)) [SEQ ID NO:155] | – | 0% | – | – | activity at oxytocin receptor [2]: maximal activity
16 | Ala-Tyr-Ile-Gln-Cys-Asn-Ala-Pro-Leu-Gly-NH2 (AYIQCNAPLG-NH2; not fully specified (bridges); printed as Ala-Tyr-Ile-Gln-Cys-Asn-Ala-Pro-Leu-Gly-NH2; also: oxorhenium(V) N3S1 metal chelate (X-X-Cys)) [SEQ ID NO:156] | 18% | 0% | – | – | activity at oxytocin receptor [2]: active
17 | Caca-D-Trp-Ile-Cys-Thr-Dap-Ala-Pro-Orn-NH2 | – | – | 0% | 52% | –
18 | Caca-D-Trp-Ile-Thr-Cys-Dap-Ala-Pro-Orn-NH2 | – | – | 0% | 0% | –
19 | Caca-D-Trp-Ile-Thr-Dap-Ala-Ala-Cys-Orn-NH2 | – | – | 0% | 0% | –
20 | Caca-D-Trp-Ile-Thr-Dap-Ala-Ala-Orn-Cys-NH2 | – | – | 0% | 23% | –
21 | Caca-D-Trp-Ile-Thr-Dap-Ala-Cys-Ala-Orn-NH2 | – | – | 0% | 0% | –
22 | Caca-D-Trp-Ile-Thr-Dap-Ala-Cys-Pro-Orn-NH2 | – | – | 0% | 0% | –
23 | Caca-D-Trp-Ile-Thr-Dap-Cys-Ala-Pro-Orn-NH2 | – | – | 9% | 22% | –
24 | Pmp-D-Trp-Cys-Ile-Thr-Dap-Ala-Pro-Orn-NH2 | – | – | 0% | 23% | –
25 | [Chg][dW]CIT[Dap]AP[Orn]-NH2 | – | – | 0% | 0% | –
26 | [dChg][dW]CIT[Dap]AP[Orn]-NH2 | – | – | 0% | 8% | –
